Data: US20230167162A1 (TAMPERE UNIVERSITY FOUNDATION SR, published 2023)
Where a chain is given by its changes, count along the chain named. In names and notes the source's numbering stands. Ends that are not written are not given here.

Key:
[1] = target: T1, His-tagged neuropilin-1 b1b2 domain (NRP-1 WT) (UniProt O14786 273-586, limits assumed, FAM (5-(and-6)-carboxyfluorescein) label, amine-reactive dye); assay: ELISA: immobilised peptide (10 µg/well), FAM-labelled NRP-1, fluorescence intensity
T1 construct: domain: b1b2 domain; also called WT NRP-1; wild type NRP-1; not shown: His-tag
T1 sequence (looked up): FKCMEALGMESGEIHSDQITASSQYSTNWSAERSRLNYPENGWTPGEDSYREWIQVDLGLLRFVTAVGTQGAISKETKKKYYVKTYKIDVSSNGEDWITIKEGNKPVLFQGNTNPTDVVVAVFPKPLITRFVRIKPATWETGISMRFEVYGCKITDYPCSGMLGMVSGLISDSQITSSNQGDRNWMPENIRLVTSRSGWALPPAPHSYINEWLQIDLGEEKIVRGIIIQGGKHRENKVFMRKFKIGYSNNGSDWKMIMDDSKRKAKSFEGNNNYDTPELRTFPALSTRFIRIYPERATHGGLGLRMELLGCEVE
Experimental: (§1) In vitro binding of DCN-tCRK and peptides to NRP-1 was analyzed using ELISA analysis. 96-well, black FLUOTRAC™ 600, high binding plates (Greiner Bio-One, Kremsmünster, Austria) were coated with […] of 100 μg/ml DCN-tCRK in PBS at 4° C. overnight. 10 μg/well RPARPAR (SEQ ID NO: 25) and […] (SEQ ID NO: 26) peptides were coated in parallel as a positive and negative control, respectively. BSA was used as an immobilization control. The plates were washed 3 times with phosphate buffered saline (PBS) and blocked for 1 h at 37° C. with 300 μl of blocking solution (1×PBS, 1% BSA, 0.1% Tween-20). His-tagged neuropilin-1 b1b2 domain (NRP-1 WT) and triple mutant NS346A-E348A-T349A neuropilin-1 b1b2 domain (NRP-1 mutant) were expressed and purified at the Protein Production and Analysis Facility at the Sanford Burnham Prebys Medical Discovery Institute (La Jolla, Calif.) as described previously (Teesalu et al., 2009, PNAS 106:16157-16162). The recombinant proteins NRP1 WT, NRP1 mutant, and DCN-tCRK were FAM (5-(and-6)-Carboxyfluorescein, #90024, Biotium Inc, CA, USA) labeled by mixing 1:10 ratio of amine-reactive FAM dye (diluted in DMSO final concentration 0.2%) and protein. […] After adding 100 μl PBS in each well, the plate was immediately read with top read mode using a fluorescence reader (Flex Station II, Molecular Devices; peak excitation=485 nm, peak emission=530 nm, cut off=515).

[2] = target: T2, 6xHistag-DCN-tCRK fusion protein (human, UniProt P07585 31-359, glycosaminoglycan chain (mostly chondroitin sulfate) attached to the DCN core, residue not stated; FAM-labelled in the cell assay only); assay: ELISA: immobilised DCN-tCRK (100 µg/ml coating), FAM-labelled NRP-1 mutant, fluorescence intensity, compared with BSA control
T2 construct: Produced in HEK293F cells; Immobilised unlabelled on the plate in the ELISA; also called tCRK-DCN; FAM-DCN-tCRK
T2 sequence (P07585 other isoform, or with tags, fused parts or gaps): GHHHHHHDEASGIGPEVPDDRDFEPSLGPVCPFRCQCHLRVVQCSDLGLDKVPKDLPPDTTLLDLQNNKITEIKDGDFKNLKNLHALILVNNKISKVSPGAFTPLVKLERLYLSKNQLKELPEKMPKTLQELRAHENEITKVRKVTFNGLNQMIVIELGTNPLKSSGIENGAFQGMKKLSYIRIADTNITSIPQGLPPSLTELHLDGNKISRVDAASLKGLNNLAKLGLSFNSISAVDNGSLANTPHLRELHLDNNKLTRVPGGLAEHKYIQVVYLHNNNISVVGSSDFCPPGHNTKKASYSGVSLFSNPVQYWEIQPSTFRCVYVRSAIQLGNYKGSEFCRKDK
Experimental: as §1

RPARPARA (not fully specified, also called negative peptide) [RPARPARA peptide]: no binding (tested: 20 µg/well FAM-labelled NRP1 WT) [1].

B1: triple mutant NS346A-E348A-T349A neuropilin-1 b1b2 domain (NRP-1 mutant) (receptor, UniProt O14786 273-586, looked up)
chain: T1 sequence (looked up) with S74A, E76A, T77A
modifications: FAM (5-(and-6)-carboxyfluorescein) label, amine-reactive dye
notes: domain: b1b2 domain; Printed as 'NS346A-E348A-T349A'; also called mutant NRP-1; not shown: His-tag
B1: no binding (tested: 20 µg/well FAM-labelled NRP1 mutant) [2].
